Test results: article doi:10.1101/2021.01.06.425657, “The SCF^Met30 ubiquitin ligase senses cellular redox state to regulate the transcription of sulfur metabolism gene” (bioRxiv, 2021)

T1: His-SUMO-Met4-Strep-tagII-HA (S. cerevisiae, UniProt P32389 1-672)
T1 construct: Met4, transcription factor of the MET regulon, Saccharomyces cerevisiae; MET4 ORF cloned into the pET His6 Sumo vector; fractions with pure, full-length Met4 were pooled; No cleavage of His-SUMO is described; also called recombinant Met4; bacterially purified Met4; source: E. coli BL21, purified (Ni-NTA, Strep-Tactin Sepharose); not shown: HA, C-terminal, kept
T1 sequence (looked up): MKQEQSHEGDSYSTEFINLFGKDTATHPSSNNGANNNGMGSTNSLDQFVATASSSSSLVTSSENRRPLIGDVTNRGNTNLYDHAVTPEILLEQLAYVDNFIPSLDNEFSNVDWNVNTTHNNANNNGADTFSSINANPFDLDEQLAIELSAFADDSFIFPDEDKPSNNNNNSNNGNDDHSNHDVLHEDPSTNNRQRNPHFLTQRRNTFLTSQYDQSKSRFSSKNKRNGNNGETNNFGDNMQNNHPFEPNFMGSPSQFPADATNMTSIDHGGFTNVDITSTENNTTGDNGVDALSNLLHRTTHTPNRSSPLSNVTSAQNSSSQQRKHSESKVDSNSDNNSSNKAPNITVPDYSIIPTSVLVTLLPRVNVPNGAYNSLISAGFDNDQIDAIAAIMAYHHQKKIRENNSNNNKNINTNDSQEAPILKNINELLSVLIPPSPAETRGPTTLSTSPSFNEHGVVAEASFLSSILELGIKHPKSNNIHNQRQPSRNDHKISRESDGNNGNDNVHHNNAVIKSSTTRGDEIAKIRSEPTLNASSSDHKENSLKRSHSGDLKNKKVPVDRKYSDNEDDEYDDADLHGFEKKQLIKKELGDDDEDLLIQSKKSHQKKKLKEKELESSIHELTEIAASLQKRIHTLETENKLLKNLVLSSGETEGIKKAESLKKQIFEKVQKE

B1: Met30-Flag (natural protein, S. cerevisiae, UniProt P39014 1-640, looked up)
chain: MRRERQRMMSFEDKDKDDLDNSNSNNSSEMTDTAMMPPLKRLLITGSSDDLAQGSSGKKKMTMATRSPSSSPDLATNDSGTRVQPLPEYNFTKFCYRHNPDIQFSPTHTACYKQDLKRTQEINANIAKLPLQEQSDIHHIISKYSNSNDKIRKLILDGILSTSCFPQLSYISSLVTHMIKIDFISILPQELSLKILSYLDCQSLCNATRVCRKWQKLADDDRVWYHMCEQHIDRKCPNCGWGLPLLHMKRARIQQNSTGSSSNADIQTQTTRPWKVIYRERFKVESNWRKGHCRIQEFKGHMDGVLTLQFNYRLLFTGSYDSTIGIWDLFTGKLIRRLSGHSDGVKTLYFDDRKLITGSLDKTIRVWNYITGECISTYRGHSDSVLSVDSYQKVIVSGSADKTVKVWHVESRTCYTLRGHTEWVNCVKLHPKSFSCFSCSDDTTIRMWDIRTNSCLKVFRGHVGQVQKIIPLTIKDVENLATDNTSDGSSPQDDPTMTDGADESDTPSNEQETVLDENIPYPTHLLSCGLDNTIKLWDVKTGKCIRTQFGHVEGVWDIAADNFRIISGSHDGSIKVWDLQSGKCMHTFNGRRLQRETQHTQTQSLGDKVAPIACVCIGDSECFSGDEFGCVKMYKFDLND
notes: Met30, F-box protein of the SCF^Met30 E3 ubiquitin ligase, Saccharomyces cerevisiae (CEN.PK background); endogenous locus tagged at the C-terminus; 23 cysteines; Isolated from yeast as a Met30-Flag complex, so other SCF components may be on the beads; Cysteines are reduced or oxidised depending on the IP condition (+DTT, -DTT, +diamide); also called SCF^Met30-Flag; Flag-tagged Met30; source: S. …
B2: Met30 C614/616/622/630S (Flag-tagged) (natural protein, S. cerevisiae, UniProt P39014 1-640, looked up)
chain: MRRERQRMMSFEDKDKDDLDNSNSNNSSEMTDTAMMPPLKRLLITGSSDDLAQGSSGKKKMTMATRSPSSSPDLATNDSGTRVQPLPEYNFTKFCYRHNPDIQFSPTHTACYKQDLKRTQEINANIAKLPLQEQSDIHHIISKYSNSNDKIRKLILDGILSTSCFPQLSYISSLVTHMIKIDFISILPQELSLKILSYLDCQSLCNATRVCRKWQKLADDDRVWYHMCEQHIDRKCPNCGWGLPLLHMKRARIQQNSTGSSSNADIQTQTTRPWKVIYRERFKVESNWRKGHCRIQEFKGHMDGVLTLQFNYRLLFTGSYDSTIGIWDLFTGKLIRRLSGHSDGVKTLYFDDRKLITGSLDKTIRVWNYITGECISTYRGHSDSVLSVDSYQKVIVSGSADKTVKVWHVESRTCYTLRGHTEWVNCVKLHPKSFSCFSCSDDTTIRMWDIRTNSCLKVFRGHVGQVQKIIPLTIKDVENLATDNTSDGSSPQDDPTMTDGADESDTPSNEQETVLDENIPYPTHLLSCGLDNTIKLWDVKTGKCIRTQFGHVEGVWDIAADNFRIISGSHDGSIKVWDLQSGKCMHTFNGRRLQRETQHTQTQSLGDKVAPIASVSIGDSESFSGDEFGSVKMYKFDLND
notes: Met30, F-box protein, Saccharomyces cerevisiae (CEN.PK background), with four cysteine to serine mutations in the WD-40 repeat region; whole gene locus with tag transformed into yeast; source: S. cerevisiae CEN.PK mutant strain grown in rich media, immunopurified on anti-FLAG M2 magnetic beads; not shown: Flag, C-terminal, kept
B3: Met30 C414S (Flag-tagged) (natural protein, S. cerevisiae, UniProt P39014 1-640, looked up)
chain: MRRERQRMMSFEDKDKDDLDNSNSNNSSEMTDTAMMPPLKRLLITGSSDDLAQGSSGKKKMTMATRSPSSSPDLATNDSGTRVQPLPEYNFTKFCYRHNPDIQFSPTHTACYKQDLKRTQEINANIAKLPLQEQSDIHHIISKYSNSNDKIRKLILDGILSTSCFPQLSYISSLVTHMIKIDFISILPQELSLKILSYLDCQSLCNATRVCRKWQKLADDDRVWYHMCEQHIDRKCPNCGWGLPLLHMKRARIQQNSTGSSSNADIQTQTTRPWKVIYRERFKVESNWRKGHCRIQEFKGHMDGVLTLQFNYRLLFTGSYDSTIGIWDLFTGKLIRRLSGHSDGVKTLYFDDRKLITGSLDKTIRVWNYITGECISTYRGHSDSVLSVDSYQKVIVSGSADKTVKVWHVESRTSYTLRGHTEWVNCVKLHPKSFSCFSCSDDTTIRMWDIRTNSCLKVFRGHVGQVQKIIPLTIKDVENLATDNTSDGSSPQDDPTMTDGADESDTPSNEQETVLDENIPYPTHLLSCGLDNTIKLWDVKTGKCIRTQFGHVEGVWDIAADNFRIISGSHDGSIKVWDLQSGKCMHTFNGRRLQRETQHTQTQSLGDKVAPIACVCIGDSECFSGDEFGCVKMYKFDLND
notes: Met30, F-box protein, Saccharomyces cerevisiae (CEN.PK background), with the point mutation C414S; whole gene locus with tag transformed into yeast; source: S. cerevisiae CEN.PK mutant strain grown in rich media, immunopurified on anti-FLAG M2 magnetic beads; not shown: Flag, C-terminal, kept

molecular target: T1, His-SUMO-Met4-Strep-tagII-HA; experiment: pull-down; Met30-Flag complex isolated on anti-FLAG M2 protein G dynabeads from lysate of rich or -sulfur cells with 1 mM DTT, 1 mM diamide or nothing added; beads washed, then incubated with 1 ug purified recombinant Met4 in 1 mL IP buffer (50 mM Tris pH 7.5, 150 mM NaCl, 1% NP-40) with or without 1 mM DTT, 2 h, 4°C; Western blots for Met4 and Met30; mutants from cells grown in rich media; details: both partners purified

Binding result, binds:
B1
B2
B3
